For data set [1], the system named is T1, Pb2Cpf1 (Prevotella bryantii B14).
T1 sequence: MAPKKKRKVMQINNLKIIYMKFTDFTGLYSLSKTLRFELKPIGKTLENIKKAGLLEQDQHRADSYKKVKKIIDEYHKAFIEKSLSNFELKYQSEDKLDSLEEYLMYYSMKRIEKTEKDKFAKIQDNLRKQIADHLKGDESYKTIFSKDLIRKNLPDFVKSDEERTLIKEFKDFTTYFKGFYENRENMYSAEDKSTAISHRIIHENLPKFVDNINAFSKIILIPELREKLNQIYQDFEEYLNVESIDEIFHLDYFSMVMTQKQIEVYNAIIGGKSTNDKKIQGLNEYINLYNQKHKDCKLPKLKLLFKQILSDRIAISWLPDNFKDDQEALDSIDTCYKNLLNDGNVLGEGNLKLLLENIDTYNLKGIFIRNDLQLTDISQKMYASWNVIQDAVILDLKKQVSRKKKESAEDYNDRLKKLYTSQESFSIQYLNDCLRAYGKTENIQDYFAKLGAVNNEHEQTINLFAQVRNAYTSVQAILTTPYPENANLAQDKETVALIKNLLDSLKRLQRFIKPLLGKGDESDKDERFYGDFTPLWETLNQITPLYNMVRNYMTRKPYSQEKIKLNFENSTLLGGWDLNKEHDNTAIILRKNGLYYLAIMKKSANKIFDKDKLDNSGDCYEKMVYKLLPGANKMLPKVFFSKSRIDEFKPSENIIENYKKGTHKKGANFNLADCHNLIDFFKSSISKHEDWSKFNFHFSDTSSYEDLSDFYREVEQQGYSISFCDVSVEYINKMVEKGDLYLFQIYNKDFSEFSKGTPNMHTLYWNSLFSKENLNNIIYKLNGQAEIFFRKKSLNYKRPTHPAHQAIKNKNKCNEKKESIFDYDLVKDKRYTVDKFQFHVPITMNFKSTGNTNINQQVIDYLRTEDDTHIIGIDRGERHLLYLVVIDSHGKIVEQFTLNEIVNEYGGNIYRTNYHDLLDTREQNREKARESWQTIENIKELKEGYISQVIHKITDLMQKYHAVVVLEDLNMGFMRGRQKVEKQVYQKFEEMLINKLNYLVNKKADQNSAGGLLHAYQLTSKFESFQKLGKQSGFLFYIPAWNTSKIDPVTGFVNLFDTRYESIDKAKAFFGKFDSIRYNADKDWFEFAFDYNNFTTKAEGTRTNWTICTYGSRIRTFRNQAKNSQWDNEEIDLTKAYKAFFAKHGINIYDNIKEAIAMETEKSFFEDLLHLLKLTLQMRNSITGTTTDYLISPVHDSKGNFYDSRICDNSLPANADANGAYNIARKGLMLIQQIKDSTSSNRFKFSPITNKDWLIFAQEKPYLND
Nature of the data set: cell_activity. The note with it: pea protoplasts, NGS; PAM TTTC per claims.

Data set [2] deals with T2, Pb2Cpf1 E173R (Prevotella bryantii B14).
T2 sequence: T1 sequence with E182R
As to the kind of experiment: cell_activity. To be noted: pea protoplasts, NGS; PAM TTTC per claims.

Where a chain is given by its changes, count along the chain named.

This is an account of results in patent US20220333124.

As for “PsLOX2 guide RNA (plasmid 133806, MtU6 promoter; plasmid sequence given) ; PsLOX2 genomic target”, the activity in data set [1] worked out at 0.32 % editing; in data set [2], 0.88 % editing.
